This passage reports Kd results from US20260242852.

The data set concerns the target AsCas12a (Acidaminococcus sp.?) (UniProt U2UMQ6). In words: BLI. The conditions noted are these: ΨDNA guide binding without target; NEB 2.1, 0.05% Triton X.

For the sequence “AGCACCCAGTCCGCCCTGAGTAGATGTGAATCATCTTTAAT [AsCas12a GFP ΨDNA 3'-biotin]”, the Kd (in general, the constant that tells how readily two partners part at equilibrium) came out at 24.5 nM.
